Data reported in patent US20060263342A1 (YEDA RESEARCH AND DEVELOPMENT, published 2006).

How the values were obtained:
[1] = molecular target: murine B7.1 on HCT/HHD/B7.1 cells (murine) (UniProt Q00609); experiment: flow cytometry on HCT/HHD/B7.1 cells
[2] = molecular target: T1, HLA-A2.1 on T2 cells (human); experiment: T2 stabilization assay, FACS
T1 construct: MHC class I molecule without the tested peptide
Description: (§1) T2 cells were acid stripped and incubated with the indicated peptide and recombinant β2m or with β2m alone as a negative control. […] Cells were stained with BB7.2 mAb and analyzed by FACS. The number of positive cells above control level is indicated for each of the peptides.

[3] = molecular target: T1, HLA-A2.1 on T2 cells; experiment: T2 stabilization assay, acid stripped T2 cells with peptide and recombinant β2m, BB7.2 staining, FACS
Description: as §1

Sequence of murine B7.1 on HCT/HHD/B7.1 cells (murine) (Q00609 38-306): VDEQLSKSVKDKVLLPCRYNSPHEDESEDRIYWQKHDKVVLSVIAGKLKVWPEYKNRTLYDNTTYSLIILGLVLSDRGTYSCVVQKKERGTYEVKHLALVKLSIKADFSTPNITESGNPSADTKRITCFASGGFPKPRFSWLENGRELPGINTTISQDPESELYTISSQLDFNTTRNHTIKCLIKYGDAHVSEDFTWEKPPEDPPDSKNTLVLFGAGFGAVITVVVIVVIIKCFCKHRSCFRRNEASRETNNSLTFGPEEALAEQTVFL

Molecule: CTLA-4-Ig fusion protein (Fc fusion)
- percent stained cells [1]: 100%

Molecule: KCLNIWALI (also called 1-8D peptide 3-7) [peptide 3-7 (from human 1-8D and 1-8U interferon inducible genes)]
- binding result [2]: binds

Molecule: LILGIFMTI (also called 1-8D peptide 3-5) [peptide 3-5 (from human 1-8D interferon induced transmembrane protein 2)]
- binding result [3]: binds
